According to patent US20220324953A1 (JIANGSU HENGRUI MEDICINE, published 2022):

T1: mouse CTGF (antigen of the Biacore assay) (mouse, UniProt P29268 26-348)
T1 construct: also called mouse CTGF protein
T1 sequence (looked up): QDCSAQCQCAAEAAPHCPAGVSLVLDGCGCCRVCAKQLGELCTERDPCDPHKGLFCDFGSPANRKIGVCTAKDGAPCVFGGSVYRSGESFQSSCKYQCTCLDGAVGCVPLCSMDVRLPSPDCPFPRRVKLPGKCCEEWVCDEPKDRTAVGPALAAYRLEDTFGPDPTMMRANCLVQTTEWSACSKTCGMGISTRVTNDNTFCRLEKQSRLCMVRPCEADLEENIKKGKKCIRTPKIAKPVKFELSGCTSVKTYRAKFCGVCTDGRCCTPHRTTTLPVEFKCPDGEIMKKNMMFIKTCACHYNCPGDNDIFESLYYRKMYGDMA


The binders below were run against T1, mouse CTGF (antigen of the Biacore …) (assay: Biacore, antibody captured on Protein A, mouse CTGF in flow, 1:1 fit).
Excerpt: A certain amount of each of the test antibodies was affinity-captured with Protein A biosensor chip (Cat. # 29127556, GE), and then a certain concentration of human or mouse CTGF was allowed to flow through the surface of the chip. The reaction signals were detected in real time with Biacore instrument to generate a binding and dissociation curve. After the dissociation was completed in each cycle, the biosensor chip was washed and regenerated with Glycine-HCl regeneration solution pH 1.5 (Cat. # BR-1003-54, GE). The running buffer for the assay was 1×HBS-EP buffer solution (Cat. # BR-1001-88, GE).

Binder	Kd [nM]	koff [s⁻¹]	kon [M⁻¹ s⁻¹]
Hu164-67wl (antibody, human IgG1, lambda) heavy: not shown light: ETVVTQEPSLTVSPGGTVTLTCRSSIGAVTTSNYANWVQQKPGQAFRGLIGGTSNRAPWTPARFSGSLLGGKAALTLSGVQPEDEAEYYCALWYSTHYVFGGGTKLTVLGQPKANPTVTLFPPSSEELQANKATLVCLISDFYPGAVTVAWKADGSPVKAGVETTKPSKQSNNKYAASSYLSLTPEQWKSHRSYSCQVTHEGSTVEKTVAPTEC	0.0184	0.00117	6.36e+07
Hu164-77wl (antibody, human IgG1, lambda, V domains shown) VH: EVQLQESGPGLVKPSQTLSLTCTVSGFSISTFGVHWIRQHPGKGLEWIGVIWRRGGTDYNAAFMSRVTISKDTSKNQVSLKLSSVTAADTAVYYCARDGGFDYWGQGTTVTVSS VL: ETVVTQEPSLTVSPGGTVTLTCRSSIGAVTTSNYANWVQQKPGQAFRGLIGGTSNRAPWTPARFSGSLLGGKAALTLSGVQPEDEAEYYCALWYSTHYVFGGGTKLTVLG	0.148	0.00883	5.98e+07
Hu147-11wk (antibody, human IgG1, kappa, V domains shown) VH: EVQLVESGGGLVQPGGSLRLSCAASGFTFSTYAMNWVRQAPGKGLEWVGRIRTKSNNYATYYADSVKDRFTISRDDSKNSLYLQMNSLKTEDTAVYYCVETGFAYWDQGTLVTVSS VL: EIVLTQSPATLSLSPGERATLSCSASSSVSYMHWFQQKPGQSPRLLIYSTSNLASGIPARFSGSGSGTDYTLTISSLEPEDFAVYYCQQRSSYPLTFGQGTKLEIKR	3.11	0.374	1.2e+08
Hu147-12wk (antibody, human IgG1, kappa, V domains shown) VH: EVQLVESGGGLVQPGGSLRLSCAASGFTFSTYAMNWVRQAPGKGLEWVGRIRTKSNNYATYYADSVKDRFTISRDDSKNSLYLQMNSLKTEDTAVYYCVETGFAYWDQGTLVTVSS VL: EIVLTQSPATLSLSPGERATLSCSASSSVSYMHWFQQKPGQSPKLLIYSTSNLASGIPARFSGSGSGTDYTLTISSLEPEDFAVYYCQQRSSYPLTFGQGTKLEIKR	3.09	0.116	3.75e+07
Hu147-32wk (antibody, human IgG1, kappa, V domains shown) VH: EVQLVESGGGLVQPGGSLRLSCAASGFSFNTYAMNWVRQAPGKGLEWVARIRTKSNNYATYYADSVKDRFTISRDDSESSLYLQMNSLKTEDTAVYYCVETGFAYWDQGTLVTVSS VL: EIVLTQSPATLSLSPGERATLSCSASSSVSYMHWFQQKPGQSPKLLIYSTSNLASGIPARFSGSGSGTDYTLTISSLEPEDFAVYYCQQRSSYPLTFGQGTKLEIKR	2.49	0.343	1.37e+08
Hu147-13wk (antibody, human IgG1, kappa, V domains shown) VH: EVQLVESGGGLVQPGGSLRLSCAASGFTFSTYAMNWVRQAPGKGLEWVGRIRTKSNNYATYYADSVKDRFTISRDDSKNSLYLQMNSLKTEDTAVYYCVETGFAYWDQGTLVTVSS VL: EIVLTQSPATLSLSPGERATLSCSASSSVSYMHWFQQKPGQSPKLWIYSTSNLASGVPARFSGSGSGTDYTLTISSLEPEDFAVYYCQQRSSYPLTFGQGTKLEIKR	2.55	0.146	5.73e+07
Hu147-31wk (antibody, human IgG1, kappa, V domains shown) VH: EVQLVESGGGLVQPGGSLRLSCAASGFSFNTYAMNWVRQAPGKGLEWVARIRTKSNNYATYYADSVKDRFTISRDDSESSLYLQMNSLKTEDTAVYYCVETGFAYWDQGTLVTVSS VL: EIVLTQSPATLSLSPGERATLSCSASSSVSYMHWFQQKPGQSPRLLIYSTSNLASGIPARFSGSGSGTDYTLTISSLEPEDFAVYYCQQRSSYPLTFGQGTKLEIKR	2.79	0.107	3.83e+07
Hu147-23wk (antibody, human IgG1, kappa, V domains shown) VH: EVQLVESGGGLVQPGGSLRLSCAASGFTFNTYAMNWVRQAPGKGLEWVARIRTKSNNYATYYADSVKDRFTISRDDSKNSLYLQMNSLKTEDTAVYYCVETGFAYWDQGTLVTVSS VL: EIVLTQSPATLSLSPGERATLSCSASSSVSYMHWFQQKPGQSPKLWIYSTSNLASGVPARFSGSGSGTDYTLTISSLEPEDFAVYYCQQRSSYPLTFGQGTKLEIKR	2.12	0.173	8.18e+07
Hu147-33wk (antibody, human IgG1, kappa, V domains shown) VH: EVQLVESGGGLVQPGGSLRLSCAASGFSFNTYAMNWVRQAPGKGLEWVARIRTKSNNYATYYADSVKDRFTISRDDSESSLYLQMNSLKTEDTAVYYCVETGFAYWDQGTLVTVSS VL: EIVLTQSPATLSLSPGERATLSCSASSSVSYMHWFQQKPGQSPKLWIYSTSNLASGVPARFSGSGSGTDYTLTISSLEPEDFAVYYCQQRSSYPLTFGQGTKLEIKR	1.93	0.174	9.01e+07

Further binders by falling Kd, results first:

Kd [nM]	koff [s⁻¹]	kon [M⁻¹ s⁻¹]	Binder
0.133	0.0076	5.7e+07	Hu164-68wl (antibody, human IgG1, lambda, V domains shown) VH: EVTLKESGPVLVKPTETLTLTCTVSGFSLSTFGVHWIRQPPGKGLEWLGVIWRRGGTDYNAAFMSRLTISKDTSKSQVVFTMTNMDPVDTATYYCARDGGFDYWGQGTTVTVSS VL: ETVVTQEPSFSVSPGGTVTLTCRSSIGAVTTSNYANWVQQTPGQAFRGLIGGTSNRAPGVPDRFSGSILGNKAALTITGAQADDESDYYCALWYSTHYVFGGGTKLTVLG
0.126	0.00774	6.17e+07	Hu164-69wl (antibody, human IgG1, lambda, V domains shown) VH: EVTLKESGPVLVKPTETLTLTCTVSGFSLSTFGVHWIRQPPGKGLEWLGVIWRRGGTDYNAAFMSRLTISKDTSKSQVVFTMTNMDPVDTATYYCARDGGFDYWGQGTTVTVSS VL: ESVVTQPPSVSGAPGQRVTISCRSSIGAVTTSNYANWVQQLPGTAFKGLIGGTSNRAPGVPDRFSGSKSGTSASLAITGLQAEDEADYYCALWYSTHYVFGGGTKLTVLG
0.084	0.0044	5.24e+07	Hu164-87wl (antibody, human IgG1, lambda, V domains shown) VH: EVQLQESGPGLVKPSQTLSLTCTVSGFSISTFGVHWIRQHPGKGLEWLGVIWRRGGTDYNAAFMSRLTISKDTSKNQVSFKLSSVTAADTAVYYCARDGGFDYWGQGTTVTVSS VL: ETVVTQEPSLTVSPGGTVTLTCRSSIGAVTTSNYANWVQQKPGQAFRGLIGGTSNRAPWTPARFSGSLLGGKAALTLSGVQPEDEAEYYCALWYSTHYVFGGGTKLTVLG
0.0322	0.00237	7.35e+07	Hu164-57wl (antibody, human IgG1, lambda, V domains shown) VH: EVTLKESGPVLVKPTETLTLTCTVSGFSLSTFGVHWIRQPPGKALEWLAVIWRRGGTDYNAAFMSRLTISKDTSKSQVVLTMTNMDPVDTATYYCARDGGFDYWGQGTTVTVSS VL: ETVVTQEPSLTVSPGGTVTLTCRSSIGAVTTSNYANWVQQKPGQAFRGLIGGTSNRAPWTPARFSGSLLGGKAALTLSGVQPEDEAEYYCALWYSTHYVFGGGTKLTVLG
